Measurements as given in patent US20240262917A1, “ANTIBODIES AGAINST ALK AND METHODS OF USE THEREOF” (Dana-Farber Cancer Institute, Inc., priority 2021, published 2024).
“Also recorded” adds a separate entry of the source.

Columns and labels:
[1] = target: T1, ALK extracellular fragment (Homo sapiens, UniProt Q9UM73); assay: Sandwich ELISA of shed ALK ECD in patient sera; format: binding; details: sera of patients with ALK-expressing neuroblastoma
T1 construct: conditioned media containing the shed ALK (ALK 1-654) ECD fragment; from tissue; host or cells: serum of neuroblastoma patients
T1 sequence (Q9UM73 19-654): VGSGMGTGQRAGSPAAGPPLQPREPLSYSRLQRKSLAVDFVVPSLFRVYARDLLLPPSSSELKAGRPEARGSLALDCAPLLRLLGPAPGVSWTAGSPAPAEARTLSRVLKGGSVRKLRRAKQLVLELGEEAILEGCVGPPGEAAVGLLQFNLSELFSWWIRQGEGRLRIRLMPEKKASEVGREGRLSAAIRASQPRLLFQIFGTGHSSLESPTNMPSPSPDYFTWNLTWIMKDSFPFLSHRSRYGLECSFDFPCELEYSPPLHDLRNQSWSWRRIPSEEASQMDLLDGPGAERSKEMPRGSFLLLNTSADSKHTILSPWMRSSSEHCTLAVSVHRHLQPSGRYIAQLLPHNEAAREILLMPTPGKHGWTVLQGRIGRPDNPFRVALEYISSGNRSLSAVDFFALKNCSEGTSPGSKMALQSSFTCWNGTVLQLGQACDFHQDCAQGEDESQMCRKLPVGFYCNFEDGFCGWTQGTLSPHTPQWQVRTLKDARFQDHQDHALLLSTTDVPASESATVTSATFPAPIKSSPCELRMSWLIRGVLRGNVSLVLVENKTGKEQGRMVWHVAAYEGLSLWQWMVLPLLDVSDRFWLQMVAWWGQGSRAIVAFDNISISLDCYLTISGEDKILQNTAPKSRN
Excerpt: Detection of the purified ALK-ECD protein using 8G7 (detection) and 7F7 (capture) anti-ALK antibodies by sandwich ELISA. (A) Standard curve showing the gradual increase in signal with increasing concentrations of the ALK-ECD protein in the media of NGP cells that express cleaved ALK. Quantification is shown below. (B) ELISA of the shed ALK ECD protein in sera from patients with neuroblastoma. Ample diluent buffer was used to dilute the serum samples, Media represents Dulbecco's Modified Eagle media in which human embryonic kidney 293T cells were grown, 293T media, conditioned media from 293T cells; ALK ECD 293T media, media collected from 293T cells in which the ALK-ECD-mFc protein was overexpressed.
We developed a sandwich ELISA technique where two ALK antibodies (for example, 5H3 or 7F7) can be used to capture the ALK extracellular fragment (antigen), and another antibody, such as the 8G7 antibody, can be used to detect the captured ALK extracellular fragment-5H3 or 7F7 complex. The different epitope binding sites of these antibodies on the ALK extracellular fragment protein allow for the development of the sandwich ELISA technique for the detection of the cleaved or shed ALK extracellular fragment in patient serum samples (FIG. 18). […]

ALK receptor = target: T2, ALK receptor (Homo sapiens, UniProt Q9UM73, F1174L); assay: Immunofluorescence detection of ALK; format: binding
T2 construct: expressed in transfected cells; host or cells: SHEP neuroblastoma cells
T2 sequence (Q9UM73 19-1620 F1174L): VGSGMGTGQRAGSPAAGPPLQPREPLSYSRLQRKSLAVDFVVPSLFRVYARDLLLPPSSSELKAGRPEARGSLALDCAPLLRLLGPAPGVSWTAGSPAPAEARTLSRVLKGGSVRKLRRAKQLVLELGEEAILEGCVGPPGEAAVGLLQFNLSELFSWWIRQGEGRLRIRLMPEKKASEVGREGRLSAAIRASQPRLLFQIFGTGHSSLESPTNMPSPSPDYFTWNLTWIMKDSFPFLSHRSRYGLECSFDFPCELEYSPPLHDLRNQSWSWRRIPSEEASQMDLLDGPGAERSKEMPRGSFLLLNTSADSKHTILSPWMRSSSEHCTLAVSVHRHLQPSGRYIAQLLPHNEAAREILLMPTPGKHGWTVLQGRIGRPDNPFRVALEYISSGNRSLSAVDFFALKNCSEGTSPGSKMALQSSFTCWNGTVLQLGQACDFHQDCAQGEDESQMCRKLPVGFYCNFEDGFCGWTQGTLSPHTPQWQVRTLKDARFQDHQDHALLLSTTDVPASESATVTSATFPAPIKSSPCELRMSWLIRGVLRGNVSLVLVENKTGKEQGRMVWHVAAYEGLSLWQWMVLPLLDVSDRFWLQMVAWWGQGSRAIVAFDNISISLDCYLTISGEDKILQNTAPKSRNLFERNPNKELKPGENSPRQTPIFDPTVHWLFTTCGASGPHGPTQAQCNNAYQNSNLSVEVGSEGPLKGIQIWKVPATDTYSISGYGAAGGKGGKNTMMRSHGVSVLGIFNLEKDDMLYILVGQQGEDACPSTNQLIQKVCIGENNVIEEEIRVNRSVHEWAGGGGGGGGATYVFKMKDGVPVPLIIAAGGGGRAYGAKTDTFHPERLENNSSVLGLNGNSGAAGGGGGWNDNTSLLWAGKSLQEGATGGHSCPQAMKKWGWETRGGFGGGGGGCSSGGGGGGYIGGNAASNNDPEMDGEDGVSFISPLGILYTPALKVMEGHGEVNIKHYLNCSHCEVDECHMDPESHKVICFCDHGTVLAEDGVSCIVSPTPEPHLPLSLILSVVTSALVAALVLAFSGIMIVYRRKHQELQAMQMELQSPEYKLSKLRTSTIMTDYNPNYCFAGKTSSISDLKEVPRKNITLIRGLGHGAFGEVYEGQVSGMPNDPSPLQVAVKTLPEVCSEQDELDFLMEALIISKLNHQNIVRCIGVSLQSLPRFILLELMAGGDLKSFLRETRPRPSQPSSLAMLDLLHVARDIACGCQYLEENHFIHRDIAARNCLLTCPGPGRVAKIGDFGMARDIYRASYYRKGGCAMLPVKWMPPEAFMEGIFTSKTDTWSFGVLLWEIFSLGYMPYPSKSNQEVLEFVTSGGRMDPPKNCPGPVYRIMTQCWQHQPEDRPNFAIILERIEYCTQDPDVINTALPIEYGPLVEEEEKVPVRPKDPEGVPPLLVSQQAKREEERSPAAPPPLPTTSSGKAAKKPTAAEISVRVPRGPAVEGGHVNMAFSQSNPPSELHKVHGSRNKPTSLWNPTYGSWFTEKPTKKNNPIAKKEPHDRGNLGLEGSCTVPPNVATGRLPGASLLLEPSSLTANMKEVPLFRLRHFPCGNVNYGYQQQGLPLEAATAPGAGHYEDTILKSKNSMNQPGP
Excerpt: (A) IF images (40×) of NGP neuroblastoma cells expressing wild type ALK stained with the 8G7 antibody. A 1:100 antibody dilution was used. […] The last plasmid serves as a negative control similar to NIH3T3-MSCV cells in which the vector only is expressed.
Immunofluorescence detection of ALK with 8G7 and 7F7 antibodies in SHEP NB cells engineered to express the ALKF1174L mutation. Staining with the M13 antibody obtained from the Vigny laboratory under an MTA is shown for comparison (Moog-Lutz et al, 2005). Cells expressing the vector only (SHEP) were used as controls. Cells were stained with a 1:100 dilution of antibody. Images were captured at 40× with a Zeiss AXIO Imager Z1 fluorescence microscope.
Cells (0.5×10^6 per well) were seeded into six-well plates and grown on glass coverslips for 24 hr. before fixation in 4% paraformaldehyde in PBS for 15 min at room temperature (RT), washed with PBS, permeabilized in 0.1% Triton X-100, and blocked with PBS containing 0.05% Tween-20 and 5% BSA for 1 hr. to block nonspecific binding. Then, cells were incubated with the 8G7 antibody (1:100) overnight at 4° C. After washing with PBS, cells were incubated with AlexaFluor 568-conjugated secondary antibody for 1 hr. at 25° C. Images were collected on a Zeiss AXIO Imager Z1 fluorescence microscope. […] After 24 hours, cells were washed once in PBS, fixed in 4% paraformaldehyde in PBS, washed, permeabilized in 0.1% Triton X-100, and blocked in PBS containing 10% horse serum. […] The next day, cells were washed, incubated in goat anti-rabbit IgG secondary antibody (1:1000) for 1 hr. washed, and incubated in Streptavidin-TexasRed (1:1000) for 1 hr. Cover slips were mounted onto slides using mounting medium containing DAPI. Images were collected on a Zeiss AXIO Imager Z1 fluorescence microscope.

ALK = assay: Western blot analysis of ALK in cell lysates and conditioned media; format: binding, human
Excerpt: (A) Western blot analysis of ALK in Kelly and SHEP neuroblastoma cells overexpressing GFP and mutated ALK using the mAb-7 and 8G7 anti-ALK antibodies. The mAb-7 antibody was developed at the Vigny laboratory (INSERM, Unité 706/Université Pierre et Marie Curie, Paris F-75005, France) (Moog-Lutz et al, 2005; PMID: 15886198) and obtained through a Materials Transfer Agreement. (B) Western blot analysis of ALK expression in various non-neuroblastoma cell lines: H1373 (human […]), HeLa (cervical cancer), NIH-3T3 (transformed mouse fibroblast cells) using 8G7 and C26G7 (rabbit monoclonal C-terminal anti-ALK antibody; Cell Signaling Technology; Cat #3333; RRID:AB_836862) anti-ALK antibodies.
The three HPLC-purified monoclonal antibodies (5H3, 7F7 and 8G7) all of the IgG1 subtype, were tested for their ability to bind to ALK in neuroblastoma cells expressing ALK. Both cell lysates and supernatants from cells grown with and without serum (to increase the expression of ALK) were tested by western blotting. […] (A) Western blot analysis of the indicated hybridoma clones in neuroblastoma cell lines expressing WT (NGP) and mutated (SHSY5Y, Kelly) ALK. NIH3T3 cells were used as controls. (B) Western blot analysis of conditioned media from NGP neuroblastoma and 293T cells engineered to express the WT ALK receptor, with the three ALK mAbs showing binding with the shed ALK extracellular domain. […]
Cell lysates were prepared in NP-40 buffer (Invitrogen) containing complete protease inhibitor (Roche), phosphatase inhibitor (Roche) and phenylmethylsulfonyl fluoride (PMSF). Lysates were incubated on ice for 20 min and centrifuged at 16,000 g for 15 min at 4° C. Protein concentrations of the supernatants were determined with the DC protein assay kit (Bio-Rad). Protein samples were denatured using NuPAGE LDS sample buffer (Invitrogen) and NuPAGE sample reducing agent (Invitrogen). Proteins were then separated on precast 4-12% Bis-Tris gels (Invitrogen) and transferred to nitrocellulose membranes (Bio-Rad). […]

B1: 8G7: murine monoclonal IgG1 anti-ALK antibody to the N-terminal ECD of human ALK; VH SEQ ID NO: 3, VL SEQ ID NO: 4 (antibody, V domains shown)
VH: QVQLQQSGAELVRPGASVTLSCKASGYTFTDYEMHWVKQTPVHGLEWIGAIDPETGGSAYNQKFKAKAILTADRSSSTAYMELRSLTSEDSAVYYCTRTRYYGSSPAMDYWGQGTSVTVSS
VL: DIQMTQTTSSLSASLGDRVTISCSASQGIGNYLNWYQQKPDGTVKLLIYYTSSLHSGVPSRFSGSGSGTDYSLTISNLEPEDIATYYCQQYSKLPYTFGGGTKLEIK
B1 was tested, and the “recognition of circulating ALK extracellular fragment in sera” value [1] was “recognize the circulating ALK extracellular fragment in the sera of patients with ALK-expressing neuroblastoma”, the “recognition of ALK lacking the majority of the ECD in immunofluorescence” value (ALK receptor; NIH3T3-ALK-del MAM2 to 654 aa, negative control) was “not recognized” and the “binding to the ALK receptor in immunofluorescence” value (ALK receptor; SHEP NB cells engineered to express the ALKF1174L mutation, 1:100 dilution of antibody) was “bind to the ALK receptor in immunofluorescence assays”. For the same molecule, the “recognition of ALK at the cell surface” value (ALK receptor; immunofluorescence, immunocytochemistry and immunohistochemistry) was “recognize ALK at the cell surface by immunofluorescence, immunocytochemistry and immunohistochemistry”, the “recognition of ALK in immunoblotting assays” value (ALK) was “recognize ALK in immunoblotting assays” and the “specificity of ALK binding by western blot” value (ALK; FIG. 15 and FIG. 25, compared with mAb-7 and C26G7 anti-ALK antibodies) was “better specificity compared to commercial Abs; also recorded: binds specifically to the N-terminal region of the ALK protein”.
